From US20230212549A1 (3B PHARMACEUTICALS, published 2023)
“And” between values parts separate entries of the source, which are not always exact repeats. Identical values can stand only once. Numbered stars: 1 amine (or outer) side, 2 acyl side, 3 side chain; on linkers, the order of the positions; unused ones are H or OH. Bridge positions count the residues as written; N and C are the ends. Square brackets hold non-standard residues; d marks the D form. * marks the point of attachment. Pro(trans-4-F) = O=C(O)[C@@H]1C[C@@H](F)CN1; Phe(4-Cl) = N[C@@H](Cc1ccc(Cl)cc1)C(=O)O; Phe(2-Cl) = N[C@@H](Cc1ccccc1Cl)C(=O)O; 2Nal = N[C@@H](Cc1ccc2ccccc2c1)C(=O)O; mXylylene = c1cc(C[*:1])cc(C[*:2])c1; Hexanoyl = CCCCCC(=O)*; Sar = CNCC(=O)O

How the values were obtained:
[1] = biological target: T1, fibroblast activation protein (FAP) on FAP-expressing human WI-38 fibroblasts (human, UniProt Q12884 1-760); assay: competitive FACS, WI-38 cells, vs Cy5 tracer m3; C = pIC50 6.1-7.0
T1 construct: also called human FAP

[2] = biological target: Recombinant human FAP (R&D systems, #3715-SE) (human, UniProt Q12884 26-760); assay: cell-based or functional assay

| Binder | pIC50 Category (FACS) [1] | pIC50 Category (Activity) [2] |
| --- | --- | --- |
| Hexanoyl-CGPTEFC-NH2 (linker 1-7 via mXylylene; SMILES CCCCCC(=O)N[C@H]1CSCc2cccc(c2)CSC[C@@H](C(N)=O)NC(=O)[C@H](Cc2ccccc2)NC(=O)[C@H](CCC(=O)O)NC(=O)[C@H]([C@@H](C)O)NC(=O)[C@@H]2CCCN2C(=O)CNC1=O, also called 3BP-3345) [Hex-[Cys(3MeBn)-Gly-Pro-Thr-Glu-Phe-Cys]-NH2] | 6.1 pIC50 and 7 pIC50 | 7.1 pIC50 and 8 pIC50 |
| Hexanoyl-CPPTEFC-NH2 (linker 1-7 via mXylylene; SMILES CCCCCC(=O)N[C@H]1CSCc2cccc(c2)CSC[C@@H](C(N)=O)NC(=O)[C@H](Cc2ccccc2)NC(=O)[C@H](CCC(=O)O)NC(=O)[C@H]([C@@H](C)O)NC(=O)[C@@H]2CCCN2C(=O)[C@@H]2CCCN2C1=O, also called 3BP-3287) [Hex-[Cys(3MeBn)-Pro-Pro-Thr-Glu-Phe-Cys]-NH2] | 6.1 pIC50 and 7 pIC50 | 7.1 pIC50 and 8 pIC50 |
| Hexanoyl-C[Sar]PTEFC-NH2 (linker 1-7 via mXylylene; SMILES CCCCCC(=O)N[C@H]1CSCc2cccc(c2)CSC[C@@H](C(N)=O)NC(=O)[C@H](Cc2ccccc2)NC(=O)[C@H](CCC(=O)O)NC(=O)[C@H]([C@@H](C)O)NC(=O)[C@@H]2CCCN2C(=O)CN(C)C1=O, also called 3BP-3347) [Hex-[Cys(3MeBn)-Nmg-Pro-Thr-Glu-Phe-Cys]-NH2] | 6.1 pIC50 and 7 pIC50 | 7.1 pIC50 and 8 pIC50 |
| Hexanoyl-CP[Pro(trans-4-F)]TEFC-NH2 (linker 1-7 via mXylylene; SMILES CCCCCC(=O)N[C@H]1CSCc2cccc(c2)CSC[C@@H](C(N)=O)NC(=O)[C@H](Cc2ccccc2)NC(=O)[C@H](CCC(=O)O)NC(=O)[C@H]([C@@H](C)O)NC(=O)[C@@H]2C[C@@H](F)CN2C(=O)[C@@H]2CCCN2C1=O, also called 3BP-3352) [Hex-[Cys(3MeBn)-Pro-4Tfp-Thr-Glu-Phe-Cys]-NH2] | 6.1 pIC50 and 7 pIC50 | 7.1 pIC50 and 8 pIC50 |
| Hexanoyl-CPPTE[2Nal]C-NH2 (linker 1-7 via mXylylene; SMILES CCCCCC(=O)N[C@H]1CSCc2cccc(c2)CSC[C@@H](C(N)=O)NC(=O)[C@H](Cc2ccc3ccccc3c2)NC(=O)[C@H](CCC(=O)O)NC(=O)[C@H]([C@@H](C)O)NC(=O)[C@@H]2CCCN2C(=O)[C@@H]2CCCN2C1=O, also called 3BP-3362) [Hex-[Cys(3MeBn)-Pro-Pro-Thr-Glu-2Ni-Cys]-NH2] | 6.1 pIC50 and 7 pIC50 | 6.1 pIC50 and 7 pIC50 |
| Hexanoyl-CPPTE[Phe(2-Cl)]C-NH2 (linker 1-7 via mXylylene; SMILES CCCCCC(=O)N[C@H]1CSCc2cccc(c2)CSC[C@@H](C(N)=O)NC(=O)[C@H](Cc2ccccc2Cl)NC(=O)[C@H](CCC(=O)O)NC(=O)[C@H]([C@@H](C)O)NC(=O)[C@@H]2CCCN2C(=O)[C@@H]2CCCN2C1=O, also called 3BP-3368) [Hex-[Cys(3MeBn)-Pro-Pro-Thr-Glu-Ocf-Cys]-NH2] | 6.1 pIC50 and 7 pIC50 | 7.1 pIC50 and 8 pIC50 |
| Hexanoyl-CPPTE[Phe(4-Cl)]C-NH2 (linker 1-7 via mXylylene; SMILES CCCCCC(=O)N[C@H]1CSCc2cccc(c2)CSC[C@@H](C(N)=O)NC(=O)[C@H](Cc2ccc(Cl)cc2)NC(=O)[C@H](CCC(=O)O)NC(=O)[C@H]([C@@H](C)O)NC(=O)[C@@H]2CCCN2C(=O)[C@@H]2CCCN2C1=O, also called 3BP-3369) [Hex-[Cys(3MeBn)-Pro-Pro-Thr-Glu-Pcf-Cys]-NH2] | 6.1 pIC50 and 7 pIC50 | 6.1 pIC50 and 7 pIC50 |
| Ac-MCPPTEFCDHFAD-NH2 (linker 2-8 via mXylylene; SMILES CSCC[C@H](NC(C)=O)C(=O)N[C@H]1CSCc2cccc(c2)CSC[C@@H](C(=O)N[C@@H](CC(=O)O)C(=O)N[C@@H](Cc2c[nH]cn2)C(=O)N[C@@H](Cc2ccccc2)C(=O)N[C@@H](C)C(=O)N[C@@H](CC(=O)O)C(N)=O)NC(=O)[C@H](Cc2ccccc2)NC(=O)[C@H](CCC(=O)O)NC(=O)[C@H]([C@@H](C)O)NC(=O)[C@@H]2CCCN2C(=O)[C@@H]2CCCN2C1=O, also called 3BP-3197) [Ac-Met-[Cys(3MeBn)-Pro-Pro-Thr-Glu-Phe-Cys]-Asp-His-Phe-Ala-Asp-NH2] | 6.1 pIC50 and 7 pIC50 | 6.1 pIC50 and 7 pIC50 |
